B1: Kinetochore protein NDC80 homolog (Homo sapiens), O14777 (parent)
chain: MKRSSVSSGGAGRLSMQELRSQDVNKQGLYTPQTKEKPTFGKLSINKPTSERKVSLFGKRTSGHGSRNSQLGIFSSSEKIKDPRPLNDKAFIQQCIRQLCEFLTENGYAHNVSMKSLQAPSVKDFLKIFTFLYGFLCPSYELPDTKFEEEVPRIFKDLGYPFALSKSSMYTVGAPHTWPHIVAALVWLIDCIKIHTAMKESSPLFDDGQPWGEETEDGIMHNKLFLDYTIKCYESFMSGADSFDEMNAELQSKLKDLFNVDAFKLESLEAKNRALNEQIARLEQEREKEPNRLESLRKLKASLQGDVQKYQAYMSNLESHSAILDQKLNGLNEEIARVELECETIKQENTRLQNIIDNQKYSVADIERINHERNELQQTINKLTKDLEAEQQKLWNEELKYARGKEAIETQLAEYHKLARKLKLIPKGAENSKGYDFEIKFNPEAGANCLVKYRAQVYVPLKELLNETEEEINKALNKKMGLEDTLEQLNAMITESKRSVRTLKEEVQKLDDLYQQKIKEAEEEDEKCASELESLEKHKHLLESTVNQGLSEAMNELDAVQREYQLVVQTTTEERRKVGNNLQRLLEMVATHVGSVEKHLEEQIAKVDREYEECMSEDLSENIKEIRDKYEKKATLIKSSEE
partner: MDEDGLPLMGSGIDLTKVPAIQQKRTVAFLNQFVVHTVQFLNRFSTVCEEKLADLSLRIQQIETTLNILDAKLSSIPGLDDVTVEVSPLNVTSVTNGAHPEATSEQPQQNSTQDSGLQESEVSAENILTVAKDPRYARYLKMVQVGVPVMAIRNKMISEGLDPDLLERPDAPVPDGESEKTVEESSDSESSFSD
B2: STAM-binding protein (Homo sapiens), O95630 (parent)
chain: MSDHGDVSLPPEDRVRALSQLGSAVEVNEDIPPRRYFRSGVEIIRMASIYSEEGNIEHAFILYNKYITLFIEKLPKHRDYKSAVIPEKKDTVKKLKEIAFPKAEELKAELLKRYTKEYTEYNEEKKKEAEELARNMAIQQELEKEKQRVAQQKQQQLEQEQFHAFEEMIRNQELEKERLKIVQEFGKVDPGLGGPLVPDLEKPSLDVFPTLTVSSIQPSDCHTTVRPAKPPVVDRSLKPGALSNSESIPTIDGLRHVVVPGRLCPQFLQLASANTARGVETCGILCGKLMRNEFTITHVLIPKQSAGSDYCNTENEEELFLIQDQQGLITLGWIHTHPTQTAFLSSVDLHTHCSYQMMLPESVAIVCSPKFQETGFFKLTDHGLEEISSCRQKGFHPHSKDPPLFCSCSHVTVVDRAVTITDLR
partner: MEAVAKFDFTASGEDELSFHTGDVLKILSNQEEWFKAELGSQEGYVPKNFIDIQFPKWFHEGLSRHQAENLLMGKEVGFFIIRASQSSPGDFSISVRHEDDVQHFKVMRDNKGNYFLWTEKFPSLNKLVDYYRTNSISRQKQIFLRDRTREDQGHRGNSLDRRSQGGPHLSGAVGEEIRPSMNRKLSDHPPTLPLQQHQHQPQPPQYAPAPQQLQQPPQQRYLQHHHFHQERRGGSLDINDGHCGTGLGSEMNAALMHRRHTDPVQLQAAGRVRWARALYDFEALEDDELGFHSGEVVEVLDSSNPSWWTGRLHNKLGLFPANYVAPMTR
B3: Zyxin (Homo sapiens), Q15942 (parent)
chain: MAAPRPSPAISVSVSAPAFYAPQKKFGPVVAPKPKVNPFRPGDSEPPPAPGAQRAQMGRVGEIPPPPPEDFPLPPPPLAGDGDDAEGALGGAFPPPPPPIEESFPPAPLEEEIFPSPPPPPEEEGGPEAPIPPPPQPREKVSSIDLEIDSLSSLLDDMTKNDPFKARVSSGYVPPPVATPFSSKSSTKPAAGGTAPLPPWKSPSSSQPLPQVPAPAQSQTQFHVQPQPQPKPQVQLHVQSQTQPVSLANTQPRGPPASSPAPAPKFSPVTPKFTPVASKFSPGAPGGSGSQPNQKLGHPEALSAGTGSPQPPSFTYAQQREKPRVQEKQHPVPPPAQNQNQVRSPGAPGPLTLKEVEELEQLTQQLMQDMEHPQRQNVAVNELCGRCHQPLARAQPAVRALGQLFHIACFTCHQCAQQLQGQQFYSLEGAPYCEGCYTDTLEKCNTCGEPITDRMLRATGKAYHPHCFTCVVCARPLEGTSFIVDQANRPHCVPDYHKQYAPRCSVCSEPIMPEPGRDETVRVVALDKNFHMKCYKCEDCGKPLSIEADDNGCFPLDGHVLCRKCHTARAQT
partner: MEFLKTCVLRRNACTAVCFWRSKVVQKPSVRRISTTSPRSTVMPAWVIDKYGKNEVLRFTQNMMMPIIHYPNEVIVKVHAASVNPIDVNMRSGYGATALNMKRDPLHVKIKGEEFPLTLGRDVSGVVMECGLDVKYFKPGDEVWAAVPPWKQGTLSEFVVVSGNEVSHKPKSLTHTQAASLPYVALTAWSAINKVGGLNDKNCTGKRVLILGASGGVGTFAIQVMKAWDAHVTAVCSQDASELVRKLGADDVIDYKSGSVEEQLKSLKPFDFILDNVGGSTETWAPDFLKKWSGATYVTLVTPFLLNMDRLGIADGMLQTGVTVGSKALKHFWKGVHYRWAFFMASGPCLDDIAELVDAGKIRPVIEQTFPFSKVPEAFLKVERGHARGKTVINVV

Variants of: B1
Details: with wasc3_human WASHC3, Q9Y3C0
With E348D the “effect of a mutation on the interaction” value was “with no effect”.

Variants of: B2
Details: with grap2_human GRAP2, O75791
For Q155H, the “effect of a mutation on the interaction” value was “disrupting interaction strength”.
In the case of R255H, the “effect of a mutation on the interaction” value is reported as “with no effect”.

Variants of: B3
Details: with rt4i1_human RTN4IP1, Q8WWV3
For R489W, the “effect of a mutation on the interaction” value was “with no effect”.
R563Q was tested, and the “effect of a mutation on the interaction” value was “with no effect”.

From IntAct's records for PubMed 31515488
